Literature values in PMC3720604.

Target: CK2β (Homo sapiens) (UniProt P67870)
Sequence of UniProt P67870 (P67870 2-215): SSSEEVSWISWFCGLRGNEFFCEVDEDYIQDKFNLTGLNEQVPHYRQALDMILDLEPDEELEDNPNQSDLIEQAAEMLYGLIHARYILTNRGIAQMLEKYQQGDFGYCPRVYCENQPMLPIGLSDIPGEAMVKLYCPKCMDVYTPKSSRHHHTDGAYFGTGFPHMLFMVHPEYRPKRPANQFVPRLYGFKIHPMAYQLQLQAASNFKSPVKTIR

In the case of CK2α′ (from UniProt P19784), the Kd is listed as 45.5 nM.
